According to patent publication US20190316211A1, “ONCOGENIC ALTERNATIVE SPLICING SWITCH OF PACE4 IN CANCER” (SOCIETE DE COMMERCIALISATION DES PRODUITS DE LA RECHERCHE …, priority 2016, published 2019):

Legend:
recombinant PACE4 = biological target: T1, recombinant PACE4 (Homo sapiens, UniProt P29122); assay: GDF-15 spanning peptide cleavage monitored by HPLC; assay type: biochemical; conditions: 37° C., 1 h, pH 7.5
T1 construct: made in house; host or cells: S2 cells
T1 sequence (P29122 150-969): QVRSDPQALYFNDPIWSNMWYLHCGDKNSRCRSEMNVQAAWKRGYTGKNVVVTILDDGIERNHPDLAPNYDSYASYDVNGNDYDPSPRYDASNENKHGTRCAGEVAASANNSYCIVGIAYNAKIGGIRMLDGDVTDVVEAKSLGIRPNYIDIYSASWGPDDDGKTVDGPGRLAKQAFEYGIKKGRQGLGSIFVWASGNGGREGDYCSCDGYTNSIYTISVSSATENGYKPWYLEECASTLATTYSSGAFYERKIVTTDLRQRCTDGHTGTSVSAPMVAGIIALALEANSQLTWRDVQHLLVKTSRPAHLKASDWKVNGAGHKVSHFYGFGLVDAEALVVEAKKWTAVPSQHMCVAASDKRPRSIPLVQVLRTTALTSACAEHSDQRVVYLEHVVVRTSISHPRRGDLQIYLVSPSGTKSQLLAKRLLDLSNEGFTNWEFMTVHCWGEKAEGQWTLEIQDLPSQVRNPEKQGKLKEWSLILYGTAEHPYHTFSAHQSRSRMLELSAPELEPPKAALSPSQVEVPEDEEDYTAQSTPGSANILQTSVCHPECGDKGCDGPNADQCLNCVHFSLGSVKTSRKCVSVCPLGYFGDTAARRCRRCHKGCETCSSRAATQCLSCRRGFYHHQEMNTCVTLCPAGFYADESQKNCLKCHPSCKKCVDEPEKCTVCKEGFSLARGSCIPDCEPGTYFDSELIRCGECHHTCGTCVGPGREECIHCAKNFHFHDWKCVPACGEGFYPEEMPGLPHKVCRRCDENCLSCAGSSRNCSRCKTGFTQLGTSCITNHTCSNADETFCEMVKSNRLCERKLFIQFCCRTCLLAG
Source text: (§1) GDF-15 is known to supports both the proliferation and clonogenic potential of LNCaP cells, which is also in line with the observed phenotypes for both PACE4 knockdown and overexpressing cells. This protein is synthetized as a 35 kDa proprotein which requires a PC-based cleavage at the […]^196↓, site to generate a ˜17 kDa C-terminal mature form that associates as a disulfide-linked dimer further secreted in the medium. GDF-15 is only detected in LNCaP cells whereas DU145 express very low levels in both medium and cell lysates (FIGS. 10C and D). […]
(§2) GDF-15 peptide (40 μg) was incubated at 37° C. with recombinant PACE4 or soluble furin (16U) in 100 mM Hepes buffer containing 1 mM CaCl2, 1 mM 3-mercaptoethanol, and 1.8 mg/mL BSA, pH 7.5 (total sample volume: 300 μl) over a period of 1 h. […] After incubation, the reactions were immediately analyzed by the analytical HPLC (Agilent Technologies, 1100 series with a diode array detector and a fraction collector; injection volume: 95 μl, gradient: 2 to 25% […] in 50 min; [A]0.1% aq TFA and [B] acetonitrile+0.1% aq TFA; column: an Agilent Eclipse XDB C18 column (5 μm, 4.6×250 mm). The collected fractions were analysed by SELDI-TOF mass spectrometer (Bio-Rad Laboratories) to identify the cleavage product.

soluble furin = biological target: T2, soluble furin (Homo sapiens, UniProt P09958); assay: GDF-15 spanning peptide cleavage monitored by HPLC; assay type: biochemical; conditions: 37° C., 1 h, pH 7.5
T2 construct: recombinant PACE4 or soluble furin (16U); made in house; host or cells: S2 cells (said of recombinant PCs in general)
T2 sequence (P09958 108-715 limits assumed): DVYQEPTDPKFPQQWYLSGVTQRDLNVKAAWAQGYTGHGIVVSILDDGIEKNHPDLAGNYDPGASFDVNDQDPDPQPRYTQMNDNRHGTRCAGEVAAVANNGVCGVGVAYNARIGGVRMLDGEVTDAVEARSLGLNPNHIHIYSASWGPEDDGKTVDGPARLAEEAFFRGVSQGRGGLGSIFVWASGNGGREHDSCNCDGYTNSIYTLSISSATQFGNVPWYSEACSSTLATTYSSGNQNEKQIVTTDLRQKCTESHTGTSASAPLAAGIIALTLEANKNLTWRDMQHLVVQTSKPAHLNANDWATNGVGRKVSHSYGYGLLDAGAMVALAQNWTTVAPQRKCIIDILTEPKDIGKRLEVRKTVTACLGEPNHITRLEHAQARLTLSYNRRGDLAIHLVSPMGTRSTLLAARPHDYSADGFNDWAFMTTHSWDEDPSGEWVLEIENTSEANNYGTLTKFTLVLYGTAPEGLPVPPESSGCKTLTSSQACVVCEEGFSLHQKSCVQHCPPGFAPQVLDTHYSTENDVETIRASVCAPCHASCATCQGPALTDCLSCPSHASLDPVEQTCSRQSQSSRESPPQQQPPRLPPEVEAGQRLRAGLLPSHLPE
Source text: as §1, §2

For “QAARGRRRARARNG (Ac-QAARGRRRARARNG-NH2) [synthetic N-acetylated peptide spanning the GDF-15 cleavage site]”, the “cleavage of peptide at the QAARGRRRAR site” value (recombinant PACE4) was “cleaved by both PCs” and the “cleavage of peptide at the QAARGRRRAR site” value (soluble furin) was “cleaved by both PCs”.
